{"source": "the Human Domainome abundance scans (Beltran et al. 2025)", "parents": {"B1": {"name": "Pituitary-specific positive transcription factor 1, residues 130 to 198; numbered along this chain, P28069 (parent)", "chain": "RELEKFANEFKVRRIKLGYTQTNVGEALAAVHGSEFSQTTICRFENLQLSFKNACKLKAILSKWLEEAE"}}, "note": "± gives the uncertainty stated by the source.", "data": [{"variants_of": "B1", "assay": "abundance fitness (aPCA) (normalised: wild type 0, dead -1); higher = more abundant; growth selection in yeast, the domain comes from the species named", "details": "Homo sapiens", "values": [{"variant": "RELEKFANEFKVRRIKLGYTQTNVGEALAAVHGSEFSQTTICRFENLQLSFKNACKLKAWLSKWLEEAE", "abundance fitness": "-0.611 ± 0.14"}, {"variant": "RELEKFANEFKVRRIKLGYTQTNVGEALAAVHGSEFSQTTICRFENLQLSFKNACKLKAKLSKWLEEAE", "abundance fitness": "-0.262 ± 0.1"}, {"variant": "RELEKFANEFKVRRIKLGYTQTNVGEALAAVHGSEFSQTTICRFENLQLSFKNACKLKATLSKWLEEAE", "abundance fitness": "-0.51 ± 0.08"}, {"variant": "RELEKFANEFKVRRIKLGYTQTNVGEALAAVHGSEFSQTTICRFENLQLSFKNACKLKARLSKWLEEAE", "abundance fitness": "-0.346 ± 0.066"}, {"variant": "RELEKFANEFKVRRIKLGYTQTNVGEALAAVHGSEFSQTTICRFENLQLSFKNACKLKAYLSKWLEEAE", "abundance fitness": "-0.347 ± 0.14"}, {"variant": "RELEKFANEFKVRRIKLGYTQTNVGEALAAVHGSEFSQTTICRFENLQLSFKNACKLKALLSKWLEEAE", "abundance fitness": "-0.135 ± 0.053"}, {"variant": "RELEKFANEFKVRRIKLGYTQTNVGEALAAVHGSEFSQTTICRFENLQLSFKNACKLKAHLSKWLEEAE", "abundance fitness": "-0.437 ± 0.17"}, {"variant": "RELEKFANEFKVRRIKLGYTQTNVGEALAAVHGSEFSQTTICRFENLQLSFKNACKLKACLSKWLEEAE", "abundance fitness": "-0.365 ± 0.1"}, {"variant": "RELEKFANEFKVRRIKLGYTQTNVGEALAAVHGSEFSQTTICRFENLQLSFKNACKLKYILSKWLEEAE", "abundance fitness": "-0.298 ± 0.099"}, {"variant": "RELEKFANEFKVRRIKLGYTQTNVGEALAAVHGSEFSQTTICRFENLQLSFKNACKLKSILSKWLEEAE", "abundance fitness": "0.007 ± 0.042"}, {"variant": "RELEKFANEFKVRRIKLGYTQTNVGEALAAVHGSEFSQTTICRFENLQLSFKNACKLKCILSKWLEEAE", "abundance fitness": "-0.084 ± 0.056"}, {"variant": "RELEKFANEFKVRRIKLGYTQTNVGEALAAVHGSEFSQTTICRFENLQLSFKNACKLKKILSKWLEEAE", "abundance fitness": "0.025 ± 0.062"}, {"variant": "RELEKFANEFKVRRIKLGYTQTNVGEALAAVHGSEFSQTTICRFENLQLSFKNACKLKTILSKWLEEAE", "abundance fitness": "0.042 ± 0.069"}, {"variant": "RELEKFANEFKVRRIKLGYTQTNVGEALAAVHGSEFSQTTICRFENLQLSFKNACKLKGILSKWLEEAE", "abundance fitness": "0.059 ± 0.037"}, {"variant": "RELEKFANEFKVRRIKLGYTQTNVGEALAAVHGSEFSQTTICRFENLQLSFKNACKLKLILSKWLEEAE", "abundance fitness": "-0.122 ± 0.046"}, {"variant": "RELEKFANEFKVRRIKLGYTQTNVGEALAAVHGSEFSQTTICRFENLQLSFKNACKLKNILSKWLEEAE", "abundance fitness": "0.078 ± 0.076"}, {"variant": "RELEKFANEFKVRRIKLGYTQTNVGEALAAVHGSEFSQTTICRFENLQLSFKNACKLKEILSKWLEEAE", "abundance fitness": "0.214 ± 0.063"}, {"variant": "RELEKFANEFKVRRIKLGYTQTNVGEALAAVHGSEFSQTTICRFENLQLSFKNACKLKMILSKWLEEAE", "abundance fitness": "-0.076 ± 0.064"}, {"variant": "RELEKFANEFKVRRIKLGYTQTNVGEALAAVHGSEFSQTTICRFENLQLSFKNACKLKIILSKWLEEAE", "abundance fitness": "0.049 ± 0.064"}, {"variant": "RELEKFANEFKVRRIKLGYTQTNVGEALAAVHGSEFSQTTICRFENLQLSFKNACKLKDILSKWLEEAE", "abundance fitness": "0.094 ± 0.083"}, {"variant": "RELEKFANEFKVRRIKLGYTQTNVGEALAAVHGSEFSQTTICRFENLQLSFKNACKLKWILSKWLEEAE", "abundance fitness": "-0.61 ± 0.1"}, {"variant": "RELEKFANEFKVRRIKLGYTQTNVGEALAAVHGSEFSQTTICRFENLQLSFKNACKLKQILSKWLEEAE", "abundance fitness": "-0.045 ± 0.064"}, {"variant": "RELEKFANEFKVRRIKLGYTQTNVGEALAAVHGSEFSQTTICRFENLQLSFKNACKLKVILSKWLEEAE", "abundance fitness": "0.116 ± 0.048"}, {"variant": "RELEKFANEFKVRRIKLGYTQTNVGEALAAVHGSEFSQTTICRFENLQLSFKNACKLKPILSKWLEEAE", "abundance fitness": "0.381 ± 0.058"}, {"variant": "RELEKFANEFKVRRIKLGYTQTNVGEALAAVHGSEFSQTTICRFENLQLSFKNACKLKRILSKWLEEAE", "abundance fitness": "-0.059 ± 0.044"}, {"variant": "RELEKFANEFKVRRIKLGYTQTNVGEALAAVHGSEFSQTTICRFENLQLSFKNACKLKAIMSKWLEEAE", "abundance fitness": "-0.491 ± 0.097"}, {"variant": "RELEKFANEFKVRRIKLGYTQTNVGEALAAVHGSEFSQTTICRFENLQLSFKNACKLKAIESKWLEEAE", "abundance fitness": "-0.604 ± 0.18"}, {"variant": "RELEKFANEFKVRRIKLGYTQTNVGEALAAVHGSEFSQTTICRFENLQLSFKNACKLKAICSKWLEEAE", "abundance fitness": "-0.379 ± 0.19"}, {"variant": "RELEKFANEFKVRRIKLGYTQTNVGEALAAVHGSEFSQTTICRFENLQLSFKNACKLKAIISKWLEEAE", "abundance fitness": "-0.841 ± 0.24"}, {"variant": "RELEKFANEFKVRRIKLGYTQTNVGEALAAVHGSEFSQTTICRFENLQLSFKNACKLKAIYSKWLEEAE", "abundance fitness": "-0.759 ± 0.13"}, {"variant": "RELEKFANEFKVRRIKLGYTQTNVGEALAAVHGSEFSQTTICRFENLQLSFKNACKLKAIFSKWLEEAE", "abundance fitness": "-0.536 ± 0.12"}, {"variant": "RELEKFANEFKVRRIKLGYTQTNVGEALAAVHGSEFSQTTICRFENLQLSFKNACKLKAIGSKWLEEAE", "abundance fitness": "-0.757 ± 0.11"}, {"variant": "RELEKFANEFKVRRIKLGYTQTNVGEALAAVHGSEFSQTTICRFENLQLSFKNACKLKAIRSKWLEEAE", "abundance fitness": "-1.04 ± 0.18"}, {"variant": "RELEKFANEFKVRRIKLGYTQTNVGEALAAVHGSEFSQTTICRFENLQLSFKNACKLKAIKSKWLEEAE", "abundance fitness": "-0.572 ± 0.16"}, {"variant": "RELEKFANEFKVRRIKLGYTQTNVGEALAAVHGSEFSQTTICRFENLQLSFKNACKLKAIPSKWLEEAE", "abundance fitness": "-0.728 ± 0.3"}, {"variant": "RELEKFANEFKVRRIKLGYTQTNVGEALAAVHGSEFSQTTICRFENLQLSFKNACKLKAITSKWLEEAE", "abundance fitness": "-0.778 ± 0.18"}, {"variant": "RELEKFANEFKVRRIKLGYTQTNVGEALAAVHGSEFSQTTICRFENLQLSFKNACKLKAISSKWLEEAE", "abundance fitness": "-0.815 ± 0.14"}, {"variant": "RELEKFANEFKVRRIKLGYTQTNVGEALAAVHGSEFSQTTICRFENLQLSFKNACKLKAIDSKWLEEAE", "abundance fitness": "-0.788 ± 0.28"}, {"variant": "RELEKFANEFKVRRIKLGYTQTNVGEALAAVHGSEFSQTTICRFENLQLSFKNACKLKAIQSKWLEEAE", "abundance fitness": "-0.78 ± 0.18"}]}]}
